Non-standard residues stand in square brackets, D forms with d. No end group written: not given here.
Columns and labels:
Assay in all cases: cell-based or functional assay
[1] = target: T1, mitogen-activated protein kinase-activated protein kinase 2 (human MK2) (human, UniProt P49137 46-400, limits assumed)
[2] = target: PKBβ (h) (protein kinase B) (human, UniProt P31751 120-481, limits assumed)
[3] = target: T2, PRAK (h) (p38 regulated/activated protein kinase) (human, UniProt Q8IW41 1-473, limits assumed)
T2 sequence (looked up): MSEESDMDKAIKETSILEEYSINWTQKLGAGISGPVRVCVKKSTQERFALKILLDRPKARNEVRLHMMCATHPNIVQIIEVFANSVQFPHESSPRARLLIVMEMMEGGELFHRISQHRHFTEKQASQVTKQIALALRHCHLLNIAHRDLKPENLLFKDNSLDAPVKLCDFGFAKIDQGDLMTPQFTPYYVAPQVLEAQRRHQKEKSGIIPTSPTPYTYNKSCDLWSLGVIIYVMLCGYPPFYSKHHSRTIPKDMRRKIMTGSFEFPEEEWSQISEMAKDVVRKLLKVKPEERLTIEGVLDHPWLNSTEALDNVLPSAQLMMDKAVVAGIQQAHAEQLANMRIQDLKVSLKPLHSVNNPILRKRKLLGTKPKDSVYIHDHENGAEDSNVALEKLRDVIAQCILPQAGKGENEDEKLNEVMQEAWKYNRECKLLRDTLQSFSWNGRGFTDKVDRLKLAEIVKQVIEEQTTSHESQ

[4] = target: T3, IRAK4 (h) (IL-1 receptor (IL-1R)-associated kinase) (human, UniProt Q9NWZ3 1-460, limits assumed)
T3 sequence (looked up): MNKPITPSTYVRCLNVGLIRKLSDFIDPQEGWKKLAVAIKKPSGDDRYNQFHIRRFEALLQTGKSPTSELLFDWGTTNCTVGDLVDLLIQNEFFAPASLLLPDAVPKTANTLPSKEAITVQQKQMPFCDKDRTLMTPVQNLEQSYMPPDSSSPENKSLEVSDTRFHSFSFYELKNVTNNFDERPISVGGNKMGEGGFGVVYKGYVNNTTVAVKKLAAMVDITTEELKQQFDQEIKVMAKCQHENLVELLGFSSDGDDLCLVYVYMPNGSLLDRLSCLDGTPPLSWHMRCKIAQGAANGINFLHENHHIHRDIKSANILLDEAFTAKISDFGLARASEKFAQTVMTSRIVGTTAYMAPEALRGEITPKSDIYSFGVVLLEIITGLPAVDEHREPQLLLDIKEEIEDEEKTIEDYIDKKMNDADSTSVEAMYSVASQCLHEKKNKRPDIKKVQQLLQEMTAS

[5] = target: MLCK (h) (myosin light chain kinase) (human)
[6] = target: T1, mitogen-activated protein …; remark: listed apart in the source
[7] = target: MK3 (mitogen-activated protein kinase-activated protein kinase 3) (human, UniProt Q16644 1-382, limits assumed)
[8] = target: ROCK-I (h) (Rho-associated serine/threonine kinase) (human, UniProt Q13464 17-535, limits assumed)
SAPK2a (h) (p38α) = SAPK2a (h) (p38α) (human, UniProt Q16539 1-360)
[9] = target: CaMKI (h) (calcium/calmodulin-dependent protein kinase) (human, UniProt Q14012 1-370, limits assumed)
Sequence of CaMKI (h) (calcium/calmodulin-dependent protein kinase) (Q14012 whole entry): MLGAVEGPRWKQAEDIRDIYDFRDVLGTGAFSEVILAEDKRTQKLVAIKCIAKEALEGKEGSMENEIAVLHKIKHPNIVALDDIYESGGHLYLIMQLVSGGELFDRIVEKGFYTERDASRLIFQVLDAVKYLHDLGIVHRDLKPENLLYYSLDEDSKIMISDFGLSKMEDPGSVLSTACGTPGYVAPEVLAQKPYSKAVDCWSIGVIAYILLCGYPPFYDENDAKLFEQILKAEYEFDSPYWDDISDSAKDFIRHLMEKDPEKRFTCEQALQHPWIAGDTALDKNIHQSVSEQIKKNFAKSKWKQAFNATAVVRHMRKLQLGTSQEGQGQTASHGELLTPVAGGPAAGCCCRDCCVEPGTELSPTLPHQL

Sequence of ROCK-I (h) (Rho-associated serine/threonine kinase) (Q13464 17-535 limits assumed): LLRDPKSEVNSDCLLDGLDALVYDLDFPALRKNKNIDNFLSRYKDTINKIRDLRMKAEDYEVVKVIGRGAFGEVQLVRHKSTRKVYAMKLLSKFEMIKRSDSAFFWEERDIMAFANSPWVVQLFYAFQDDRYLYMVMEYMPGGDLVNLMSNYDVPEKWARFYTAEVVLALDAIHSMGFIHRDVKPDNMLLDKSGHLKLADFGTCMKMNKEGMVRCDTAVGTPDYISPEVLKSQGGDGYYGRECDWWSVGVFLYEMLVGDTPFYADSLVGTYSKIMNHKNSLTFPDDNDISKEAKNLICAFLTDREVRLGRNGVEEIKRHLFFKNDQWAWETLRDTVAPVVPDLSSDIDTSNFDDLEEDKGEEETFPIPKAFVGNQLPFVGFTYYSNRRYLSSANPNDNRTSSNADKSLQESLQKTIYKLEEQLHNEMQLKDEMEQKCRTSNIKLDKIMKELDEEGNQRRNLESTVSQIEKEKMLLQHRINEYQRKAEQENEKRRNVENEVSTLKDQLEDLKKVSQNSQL
Sequence of SAPK2a (h) (p38α) (Q16539 whole entry): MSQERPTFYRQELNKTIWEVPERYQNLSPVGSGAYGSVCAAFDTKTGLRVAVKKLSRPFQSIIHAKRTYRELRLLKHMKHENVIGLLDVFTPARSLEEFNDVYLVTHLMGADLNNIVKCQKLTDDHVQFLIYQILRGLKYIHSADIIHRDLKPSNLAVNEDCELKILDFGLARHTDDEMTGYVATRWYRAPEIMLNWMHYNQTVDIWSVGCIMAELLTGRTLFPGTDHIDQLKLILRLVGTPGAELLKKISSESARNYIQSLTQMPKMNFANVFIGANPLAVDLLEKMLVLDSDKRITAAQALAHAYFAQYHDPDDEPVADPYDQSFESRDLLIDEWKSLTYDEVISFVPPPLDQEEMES
Sequence of PKBβ (h) (protein kinase B) (P31751 120-481 limits assumed): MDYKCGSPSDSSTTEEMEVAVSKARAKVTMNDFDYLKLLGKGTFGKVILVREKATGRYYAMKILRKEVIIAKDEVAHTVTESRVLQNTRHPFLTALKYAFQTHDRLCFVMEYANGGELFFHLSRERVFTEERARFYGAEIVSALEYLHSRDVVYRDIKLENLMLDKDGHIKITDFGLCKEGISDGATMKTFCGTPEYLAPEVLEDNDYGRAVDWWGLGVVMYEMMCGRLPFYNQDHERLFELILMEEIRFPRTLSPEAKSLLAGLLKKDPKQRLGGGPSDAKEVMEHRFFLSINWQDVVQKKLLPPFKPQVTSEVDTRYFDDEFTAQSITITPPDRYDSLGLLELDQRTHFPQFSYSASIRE
T1 sequence (P49137 46-400 limits assumed): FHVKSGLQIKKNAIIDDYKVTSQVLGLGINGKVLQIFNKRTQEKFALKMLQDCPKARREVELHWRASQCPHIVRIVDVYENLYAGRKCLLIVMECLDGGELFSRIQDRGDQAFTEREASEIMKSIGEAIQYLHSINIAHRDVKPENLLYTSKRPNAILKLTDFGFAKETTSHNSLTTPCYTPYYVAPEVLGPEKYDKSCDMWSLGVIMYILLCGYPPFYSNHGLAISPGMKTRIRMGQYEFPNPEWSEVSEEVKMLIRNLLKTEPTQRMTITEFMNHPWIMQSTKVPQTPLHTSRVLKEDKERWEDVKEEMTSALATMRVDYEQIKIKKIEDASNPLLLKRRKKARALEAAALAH
Sequence of MK3 (mitogen-activated protein kinase-activated protein kinase 3) (Q16644 whole entry): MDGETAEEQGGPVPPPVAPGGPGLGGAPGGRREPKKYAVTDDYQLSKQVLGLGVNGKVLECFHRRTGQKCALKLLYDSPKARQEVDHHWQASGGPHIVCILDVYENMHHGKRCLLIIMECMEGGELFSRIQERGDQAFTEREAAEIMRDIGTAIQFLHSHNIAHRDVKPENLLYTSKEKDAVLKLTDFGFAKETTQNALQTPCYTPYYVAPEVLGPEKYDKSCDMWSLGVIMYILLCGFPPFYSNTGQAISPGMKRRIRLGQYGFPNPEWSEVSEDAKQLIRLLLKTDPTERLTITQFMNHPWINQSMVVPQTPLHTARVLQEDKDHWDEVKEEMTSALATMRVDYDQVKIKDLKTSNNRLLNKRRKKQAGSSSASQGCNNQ

Binder: KALNRQLGAAA
- % change in MK2 reaction velocity vs unsubstituted …, peptide at 100 µM [1]: 273%

Binder: WLRRIKAWLRRIKALNRQLGVAA
- Kinase Activity, peptide at 30 µM, radiometric assay [2]: 18%
- Kinase Activity, peptide at 30 µM, radiometric assay [3]: 67%
- Kinase Activity, peptide at 30 µM, radiometric assay [4]: 12%
- Kinase Activity, peptide at 30 µM, radiometric assay [5]: 4%
- Kinase Activity, peptide at 30 µM, radiometric assay [6]: 2%
- Kinase Activity, peptide at 30 µM, radiometric assay [7]: 16%
- Kinase Activity, peptide at 30 µM, radiometric assay [8]: 0%
- Kinase Activity, peptide at 30 µM, radiometric assay (SAPK2a (h) (p38α)): 61%
- Kinase Activity, peptide at 30 µM, radiometric assay [9]: 9%

Binder: KALNRQLGVAA [Alanine-substitution peptide printed as KALNRQLGVAA (Table 1, fourth alanine row)]
- % change in MK2 reaction velocity vs unsubstituted …, peptide at 100 µM [1]: 258%

Binder: KALARQLGVAA
- % change in MK2 reaction velocity vs unsubstituted …, peptide at 100 µM [1]: -61%

B1: KALNdRQLGVAA (peptide)
peptide: KALN[dR]QLGVAA-NH2
modifications: N-terminus assumed
SMILES: CC(C)C[C@H](NC(=O)[C@H](C)NC(=O)[C@@H](N)CCCCN)C(=O)N[C@@H](CC(N)=O)C(=O)N[C@H](CCCNC(=N)N)C(=O)N[C@@H](CCC(N)=O)C(=O)N[C@@H](CC(C)C)C(=O)NCC(=O)N[C@H](C(=O)N[C@@H](C)C(=O)N[C@@H](C)C(N)=O)C(C)C
- % change in MK2 reaction velocity vs unsubstituted …, peptide at 100 µM [1]: 206%

Binder: WLRRIKAWLRRIKA
- % change in MK2 reaction velocity vs unsubstituted …, peptide at 100 µM [1]: -83%

B2: KALNRdQLGVAA (peptide)
peptide: KALNR[dQ]LGVAA-NH2
modifications: N-terminus assumed
SMILES: CC(C)C[C@H](NC(=O)[C@H](C)NC(=O)[C@@H](N)CCCCN)C(=O)N[C@@H](CC(N)=O)C(=O)N[C@@H](CCCNC(=N)N)C(=O)N[C@H](CCC(N)=O)C(=O)N[C@@H](CC(C)C)C(=O)NCC(=O)N[C@H](C(=O)N[C@@H](C)C(=O)N[C@@H](C)C(N)=O)C(C)C
- % change in MK2 reaction velocity vs unsubstituted …, peptide at 100 µM [1]: 176%

Binder: KAFAKLAARLYRLARQLGVAA
- Kinase Activity, peptide at 100 µM, radiometric assay [2]: 28%
- Kinase Activity, peptide at 100 µM, radiometric assay [3]: 148%
- Kinase Activity, peptide at 100 µM, radiometric assay [4]: 16%
- Kinase Activity, peptide at 100 µM, radiometric assay [5]: 2%
- Kinase Activity, peptide at 100 µM, radiometric assay [6]: 8%
- Kinase Activity, peptide at 100 µM, radiometric assay [7]: 17%
- Kinase Activity, peptide at 100 µM, radiometric assay [8]: 29%
- Kinase Activity, peptide at 100 µM, radiometric assay (SAPK2a (h) (p38α)): 59%
- Kinase Activity, peptide at 100 µM, radiometric assay [9]: 0%

B3: KAdLNRQLGVAA (peptide)
peptide: KA[dL]NRQLGVAA-NH2
modifications: N-terminus assumed
SMILES: CC(C)C[C@H](NC(=O)[C@H](CCC(N)=O)NC(=O)[C@H](CCCNC(=N)N)NC(=O)[C@H](CC(N)=O)NC(=O)[C@@H](CC(C)C)NC(=O)[C@H](C)NC(=O)[C@@H](N)CCCCN)C(=O)NCC(=O)N[C@H](C(=O)N[C@@H](C)C(=O)N[C@@H](C)C(N)=O)C(C)C
- % change in MK2 reaction velocity vs unsubstituted …, peptide at 100 µM [1]: 46%

Binder: KKKALNRQLGVAA
- % change in MK2 reaction velocity vs unsubstituted …, peptide at 100 µM [1]: -9%

B4: KALNRQdLGVAA (peptide)
peptide: KALNRQ[dL]GVAA-NH2
modifications: N-terminus assumed
SMILES: CC(C)C[C@H](NC(=O)[C@H](C)NC(=O)[C@@H](N)CCCCN)C(=O)N[C@@H](CC(N)=O)C(=O)N[C@@H](CCCNC(=N)N)C(=O)N[C@@H](CCC(N)=O)C(=O)N[C@H](CC(C)C)C(=O)NCC(=O)N[C@H](C(=O)N[C@@H](C)C(=O)N[C@@H](C)C(N)=O)C(C)C
- % change in MK2 reaction velocity vs unsubstituted …, peptide at 100 µM [1]: 257%

Binder: YGRKKRRQRRR
- % change in MK2 reaction velocity vs unsubstituted …, peptide at 100 µM [1]: 44%

Binder: KALNRQLAVAA
- % change in MK2 reaction velocity vs unsubstituted …, peptide at 100 µM [1]: -28%

Binder: YARAAARQARALNRQLGVAA
- Kinase Activity, peptide at 300 µM, radiometric assay [2]: 96%
- Kinase Activity, peptide at 300 µM, radiometric assay [3]: 81%
- Kinase Activity, peptide at 300 µM, radiometric assay [4]: 68%
- Kinase Activity, peptide at 300 µM, radiometric assay [5]: 66%
- Kinase Activity, peptide at 300 µM, radiometric assay [6]: 10%
- Kinase Activity, peptide at 300 µM, radiometric assay [7]: 19%
- Kinase Activity, peptide at 300 µM, radiometric assay [8]: 95%
- Kinase Activity, peptide at 300 µM, radiometric assay (SAPK2a (h) (p38α)): 100%
- Kinase Activity, peptide at 300 µM, radiometric assay [9]: 8%

Binder: FAKLAARLYRLARQLGVAA
- Kinase Activity, peptide at 100 µM, radiometric assay [2]: 16%
- Kinase Activity, peptide at 100 µM, radiometric assay [3]: 131%
- Kinase Activity, peptide at 100 µM, radiometric assay [4]: 13%
- Kinase Activity, peptide at 100 µM, radiometric assay [5]: 1%
- Kinase Activity, peptide at 100 µM, radiometric assay [6]: 5%
- Kinase Activity, peptide at 100 µM, radiometric assay [7]: 10%
- Kinase Activity, peptide at 100 µM, radiometric assay [8]: 25%
- Kinase Activity, peptide at 100 µM, radiometric assay (SAPK2a (h) (p38α)): 30%
- Kinase Activity, peptide at 100 µM, radiometric assay [9]: 0%

Binder: WLRRIKA [WLRRIKA (non-functional)]
- % change in MK2 reaction velocity vs unsubstituted …, peptide at 100 µM [1]: 4310%

B5: KALdNRQLGVAA (peptide)
peptide: KAL[dN]RQLGVAA-NH2
modifications: N-terminus assumed
SMILES: CC(C)C[C@H](NC(=O)[C@H](C)NC(=O)[C@@H](N)CCCCN)C(=O)N[C@H](CC(N)=O)C(=O)N[C@@H](CCCNC(=N)N)C(=O)N[C@@H](CCC(N)=O)C(=O)N[C@@H](CC(C)C)C(=O)NCC(=O)N[C@H](C(=O)N[C@@H](C)C(=O)N[C@@H](C)C(N)=O)C(C)C
- % change in MK2 reaction velocity vs unsubstituted …, peptide at 100 µM [1]: -5%

Binder: KALNAQLGVAA
- % change in MK2 reaction velocity vs unsubstituted …, peptide at 100 µM [1]: 258%

Binder: YARAAARQARALARQLGVAA
- Kinase Activity, peptide at 300 µM, radiometric assay [2]: 17%
- Kinase Activity, peptide at 300 µM, radiometric assay [3]: 86%
- Kinase Activity, peptide at 300 µM, radiometric assay [4]: 23%
- Kinase Activity, peptide at 300 µM, radiometric assay [5]: 9%
- Kinase Activity, peptide at 300 µM, radiometric assay [6]: -7%
- Kinase Activity, peptide at 300 µM, radiometric assay [7]: 5%
- Kinase Activity, peptide at 300 µM, radiometric assay [8]: 27%
- Kinase Activity, peptide at 300 µM, radiometric assay (SAPK2a (h) (p38α)): 66%
- Kinase Activity, peptide at 300 µM, radiometric assay [9]: 2%

Binder: KAANRQLGVAA
- % change in MK2 reaction velocity vs unsubstituted …, peptide at 100 µM [1]: 52%

Binder: KALNRQLGVA
- % change in MK2 reaction velocity vs unsubstituted …, peptide at 100 µM [1]: 0%

Binder: WLRRIKAWLRRIKALNRQLGV
- % change in MK2 reaction velocity vs unsubstituted …, peptide at 100 µM [1]: -132%

Binder: KALNRQAGVAA
- % change in MK2 reaction velocity vs unsubstituted …, peptide at 100 µM [1]: 18%

B6: KALNRQLGdVAA (peptide)
peptide: KALNRQLG[dV]AA-NH2
modifications: N-terminus assumed
SMILES: CC(C)C[C@H](NC(=O)[C@H](C)NC(=O)[C@@H](N)CCCCN)C(=O)N[C@@H](CC(N)=O)C(=O)N[C@@H](CCCNC(=N)N)C(=O)N[C@@H](CCC(N)=O)C(=O)N[C@@H](CC(C)C)C(=O)NCC(=O)N[C@@H](C(=O)N[C@@H](C)C(=O)N[C@@H](C)C(N)=O)C(C)C
- % change in MK2 reaction velocity vs unsubstituted …, peptide at 100 µM [1]: 160%
